A short description of the series: soluble on expression in E. coli; label from the status in PepcDB or PDB records.
In the case of “GPGSMLCRVHLRADPHSSSLHNVVHATNAMAAVNQLLGPERSVFVATEVQPQGVGHSCHGIQLPEDAIIAENVRTSMLVPKVRLHILGDAERGIPPVQQVVIWGYETCGCILQTADDLLTHGVRVAVLVDGCASRTKEVHDTAVLQISRWDGLMVTTVPSAVMQLTRSDARFVKPIIQIMKKFAADWCTTQPRPELRDRGGSGDGEKATAASDARAVPSALATATAADAILAANSACCRTEH”, the “soluble on expression in E. coli” value is “not soluble”.

As for “MSLKTKQEIVENWLPRYTQRQLIDFEPYILLTNFSHYLHVFAEHYGVPIVGEHTSMPNASAEGVTLINFGMGSANAATIMDLLWAIHPKAVIFLGKCGGLKLENALGDYLLPIAAIRGEGTSNDYLPEEVPSLPSFSVLRAISSAIQNKGKDYWTGTVYTTNRRVWEYDEKFKDYLRSTHASGVDMETATLMTVGFANKIPMGALLLISDRPMFPEGVKTEESDQLVTDNFAEEHLMLGIDALEIIRENKSSIKHIRFNWEGHHHHHH”, the “soluble on expression in E. coli” value is on record as “soluble”.

Consider “KNSFNIKLKEDSEMLEEVVVTGYGGKQLRTKVTNSIAKVKDEALKVGLFSNPAQALSGAVAGLKVTQASGSPGAAPKVTLRGGTNFDGSGDPLVIVDGQLRDGMQDINPEDIESMEVLKDAGATAIYGARASNGVILITTKTGKEGR”, for which the “soluble on expression in E. coli” value is recorded as “not soluble”.

For “SMRPQPGDGERRYREASARKKIRLDRKYIVSCKQTEVPLSVPWDPSNQVYLSYNNVSSLKMLVAKDNWVLSSEISQVRLYTLEDDKFLSFHMEMVVHVDAAQAFLLLSDLRQRPEWDKHYRSVELVQQVDEDDAIYHVTSPALGGHTKPQDFVILASRRKPCDNGDPYVIALRSVTLPTHRETPEYRRGETLCSGFCLWREGDQLTKVSYYNQATPGVLNYVTTNVAGLSSEFYTTFKACEQFLLDNRNDLAPSLQTL”, the “soluble on expression in E. coli” value is reported as “soluble”.

“MSLAKAYDHLFKLLLIGDSGVGKTCLIIRFAEDNFNNTYISTIGIDFKIRTVDIEGKKIKLQVWDTAGQERFKTITTAYYRGAMGIILVYDITDEKSFENIQNWMKSIKENASAGVERLLLGNKCDMEAKRKVQKEQADKLAREHGIRFFETSAKSSMNVDEAFSSLARDILLKSGGRRSGNEGHHHHHH”: the “soluble on expression in E. coli” value is “soluble”.

Turning to “ATIKDVAKRANVSTTTVSHVINKTRFVAEETRNAVWAAIKELHYSPSAVARSLKVNHTKSIGLLATSSEAAYFAEIIEAVEKNCFQKGYTLILGNAWNNLEKQRAYLSMMAQKRVDGLLVMCSEYPEPLLAMLEEYRHIPMVVMDAGEAKADFTDAVIDNAFEGGYMAGRYLIERGHREIGVIPGPLERNTGAGRLAGFMKAMEEAMIKVPESWIVQGDFEPESGYRAMQQILSQPHRPTAVFCGGDIMAMGALCAADEMGLRVPQDVSLIGYDNVRNARYFTPALTTIHQPKDSLGETAFNMLLDRIVNKREEPQSIEVHPRLIERRSVADGPFRDYRR”, the “soluble on expression in E. coli” value is given as “soluble”.

For “MDYFPVISVDLQSGRRVVSVEYFRGDGPPRIPYSMVGPCCVFLMHHRPSHEVRLRFSDFYNVGEFPYRVGLGDFASNVAPPPAKPFQRLIDLIGHMTLSDFTRFPNLKEAISWPLGEPSLAFFDLSSTRVHRNDDIRRDQIATLAMRSCKITNDLEDSFVGLHRMIATEAILRGIDLCLLPGFDLMYEVAHVQCVRLLQAAKEDISNAVVPNSALIVLMEESLMLRSSLPSMMGRNNWIPVIPPIPDVEMESEEESDDDGFVEVD”, the “soluble on expression in E. coli” value is listed as “not soluble”.

As to “MNPDHKEIIMNHIGLFALTAAALLAGCSSNTQQDNYREASFELCNTEVNIYSVSDDGQVRIVCADGAKFALKTEKTLDIMRDINVDYCDGEGLGKFTESNKYYMFKCKSGTMISVSK”, the “soluble on expression in E. coli” value is given as “not soluble”.

Turning to “LPTSNPAQELEARQLERTTRDDLINGNSASCADVIFIYARGSTEAGNLGTLGPSIASNLESAFGKDGVWIQGVGGAYRATLGDNALPRGTSSAAIREMLGLFQQANTKCPDATLIAGGYSQGAALAAASIEDLDSAIRDKIAGTVLFGYTKNLQNRGRIPNYPADRTKVFCNTGDLVCTGSLIVAAPHLAYGPDARGPAPEFLIEKVRAVRGSA”, the “soluble on expression in E. coli” value is listed as “soluble”.

Regarding “MGSDKIHHHHHHMGKYQDSKKVVRNYFEALENATGDEVENVLKQHMKSDYNWKGVYPFREQEGTENVADVFWKPLKKSLSNMQRRQDIFIAGTNEIDNSEWVMSMGHFMGLFDNDWLGIKHTRKMISLRYAEFNCVQDGKIAKTGLFVDIIGFMIQAGVNPLPPQTGSYFVYPGPIDHNGLLFEDADEVEGVKTLALVNKMVDDLSELNESGAMGCPPEILEKSWAKDMIWYGPGGIGASYTIPRYQEQHQLPFRNNLKGKTFNGHVCRFAEGNFACFFGWPNLTNVPCGGFLGLPGGEVKADMQVVDVYYRKGDKLQENWVLIDIPYWLKQQGLDILERTKSIFNA”, the “soluble on expression in E. coli” value is on record as “not soluble”.

With “MSLGVSFNIMCPNSSIYSDEKSRVLVDKTKSGKVRPWREKKIANVDYFELLHILEFKKAERVKDCAEILEYKQNRETGERKLYRVWFCKSRLCPMCNWRRAMKHGIQSQKVVAEVIKQKPTVRWLFLTLTVKNVYDGEELNKSLSDMAQGFRRMMQYKKINKNLVGFMRATEVTINNKDNSYNQHMHVLVCVEPTYFKNTENYVNQKQWIQFWKKAMKLDYDPNVKVQMIRPKNKYKSDIQSAIDETAKYPVKDTDFMTDDEEKNLKRLSDLEEGLHRKRLISYGGLLKEIHKKLNLDDTEEGDLIHTDDDEKADEDGFSIIAMWNWERKNYFIKEEGHHHHHH”, the “soluble on expression in E. coli” value was “soluble”.

Turning to “MDNLKAELAQAKIDIDQLEKKQWETLEQLVMRDKLIEQCSLHTEILQKDFRESEARIIQLEQQLLEPGECGSELRATIKNQEELLKKQSEEIERCKEESRMLIQQKEEMENIHSEEIFGKNKTISNLRKQIDGDVERKKAKIRTLRKELCSADMNTGKMCRRAKRAEDRIAKLESDLEEERQKHVGQDISHILDQHNSTVMALEMQLANTQQEKATLNTSVEDLKLRTEEWKHNLLGQFEVLTANSKRECESKEEQIANHKREIMEKDSKIECLMELIQNSERSAEIQKMHDALREKDLKISELSEKLQGLLINQEGEADDTMIDQDDDNKSTHSEDSDGWDKINAI”, the “soluble on expression in E. coli” value is listed as “not soluble”.

For the sequence “MGSDKIHHHHHHQSGPLRLEITEGVIEPLPFALPTFLAVGGAEDAAADVSRVIAADLRGTGLFRQIPPDAYISQITNFGAPVAYPDWQAINAQALITGQVEARADGQLVVRFRLFDVFSQAPLGEGLQFVGPADSWRRMAHTVADQVYSRITGEGGYFDTRVAFIAEEGPKNARLKRLAIMDYDGANVQFLTDSRSIVLAPRFSPQGDRILYTSYESGFPQVYIMDVATVQRRPLEAIPAETMTFSPRFSPSGQSVVFSLVDGSNTDIYSLDLATGTRRQLTQAPSIETAPSFSPDGSQIVFESDRSGNQQIYIMPADGGEARRVSAGTGRYGTPVWSPRGDYIAFTKQENGRFHIGVMRTDGSDERLLTSSFLDEGPTWAPNGRVIMFTRETPGDDGAPAVYSVDISGRNLQRVATPGMASDPAWSPLQS”, the “soluble on expression in E. coli” value was “not soluble”.

For the sequence “MMNIFILEDDFIQQTRIESIVVGILKETRIPCNQLEVFSTPQKLFESIQERGDHQLYFLDIEIGEYTRCGLELAAAIRQKDPNAVIVFVTTHSEFAPISFKYKVSALDFIDKAGGQKQFKEQIEECIRYTYDMMSSRESKDMFLFETPQTRLKLPYKDILYFATATTPHKVCLWTQTERLEFYGNLSEIQAVAPKLFLCHRSYLVNLDKVVRIDKSKQLLYFENGDSCMVSRLKMKCLFERWEALR”, the “soluble on expression in E. coli” value is “not soluble”.

For the sequence “MPKSFYFCKTLERLTLSDKILVDVPCQVSLPSLRELDLFCVVYKDEDSHVKLLSSCPVLKHLKVTRNRRVEDNVRTFRVEVPSLLRLDYKAGMMFREDSDMSDPFLVTDTPNLLSLHIFDTVGYSLSVWYMPHLVTVVTDELFPSEKFMRPLSSVKYLALSPFDTMVPWCDAVNNYSRLVECMIHLSEYDLLESLLVLLSKCSKLKVFLVDSDIPRWNHDPALWNQPSSIPRCLSSHLEIFEWDGYVGREDEKKIIRYILENSKYLKTAGISPNSTFSGEEKQKMEELESMHRTPTSVLLSSARMSFRY”, the “soluble on expression in E. coli” value is reported as “not soluble”.

On to “MSNLRIAYDRLRSMSRTEENPTVQAMQIALHIPKNDPPARSEILQAAAQAVVACCLSEESVTDEWYGNRLQQWYDHRIRKVARRGRNAAWERVTTLPGVSSVSGSAEARAFVPGPVDSVDPLLKKLQISHTDVPFDSPADPTEGPVLYVDRGLGMSVGKTAAQVGHGSMLLAAAQPFEWVERWADQGYRLSVREVDSEVFRKAAEQPGAVHVIDAGFTEVAPSSLTVVALPMLLF”, for which the “soluble on expression in E. coli” value was “not soluble”.

As to “MSEMTKTPTHYRLLSTLKAMGPYLREGQCSERFYLFDCLASCVNDKKSPEKREFWGWWMELTQNEQEMSACYHIGRYTLAGDWVAEAIPESAQAEVNHTQAEFHKKLVKTLRERFEISVTVSTESAPFA”, the “soluble on expression in E. coli” value is “not soluble”.

“MSIDMHCHLDLYPRPDLVAEESKRRGTYILSVTTTPKAWHGTSLLAKESQRIRTALGLHPQIAHQRSHELDLFDSLLSETKYVGEIGLDGGQGFKEHWDIQLKVFRHILNSVNRAGGKIMTIHSRGSASAVLDEIENIDGVAILHWFTGTPKQLERAIDLGCWFSVGPAMLDTIKGKALVLKIPKSRILTETDGPFAKFRNDPLMPWDSGIAEKQLAALWGISQMEVNAQLVDNFKVLCTS”: the “soluble on expression in E. coli” value is given as “soluble”.

For the sequence “AHHHHHHGSLSERMLKALNDQLNRELYSAYLYFAMAAYFEDLGLEGFANWMKAQAEEEIGHALRFYNYIYDRNGRVELDEIPKPPKEWESPLKAFEAAYEHEKFISKSIYELAALAEEEKDYSTRAFLEWFINEQVEEEASVKKILDKLKFAKDSPQILFMLDKELSARAPKLPGLLMQGGE”, the “soluble on expression in E. coli” value is “not soluble”.

As to “MAHHHHHHMSTRRLMHTMIRVGDLDRSIKFYTEALGMRLLRKWDCPEDKFTLVFLGYGTESETAVLELTYNYGQSEYKHGDAYGHIAIGVEDVNEEIARLKKMNVPIDYESEDGFMAFIVDPDGYYIELLNTERMLEKSREQMNEQGTA”, the “soluble on expression in E. coli” value is listed as “soluble”.

Regarding “MPLLDLLRPVSDEELRVLSERNPGWQFERLADGRLIVSPTGGESGRIRAAVLGPLYRWNEARGLGVVFDASTGFKLPDGSVLAPDAAFLLGKRWQALSQEAREGFPPLAPDAVFEVRSRSQGLEELREKAAWYLANGVRLVVLLDPYLHRVEVFRPGGVEGHQGPERVPLDPGLPGFALETRGLFLP”, the “soluble on expression in E. coli” value is recorded as “soluble”.

For “MSLTSAPCPFRVNRIDLRVLPMRTRFPFRYGIASLVALPHLFVTVELEVNGQSVIGRTSEGLPPKWFTKDPGTPNELEVAGMLAVIQNAVRLATLHGREPVTWYPLVRQLAAEQKLWASRHDHPPLLWNLGISLMERALLDALCQAWQEPLHAVLRGPALGIRWSELHPSLADDAVPPFLADPPASQLALRHTIGLADPLTAADIPSGEEVNDGLPHTLDDCIRAYGLRYFKIKLSGNLEADRHRLTSVASVIRQHASPDFSATLDGNENFQDLTAFREWFEALNSDPGLKDFMPHVLWIEQPLHRDSALNPELFDAFRNWPEAPRLIIDESDGESGALQTALELGYSGGSHKNCKGILKGLANAATLHAFRAAHPERDFILSGEDLANVGPIPLTQDLAMQALLGIPHVERNGHHYFRGLSMYPDGIGVSAATLAAHPDLYHQLPDGLATLNIREGFIAIDSVNQAPFGTPVAPPVDQLPTVKEWILQGGLGALEGEGHHHHHH”, the “soluble on expression in E. coli” value was “soluble”.

With “MSERIVPSGDVELWSDDFGDPADPALLLVMGGNLSALGWPDEFARRLADGGLHVIRYDHRDTGRSTTRDFAAHPYGFGELAADAVAVLDGWGVDRAHVVGLSMGATITQVIALDHHDRLSSLTMLLGGGLDIDFDANIERVMRGEPTLDGLPGPQQPFLDALALMNQPAEGRAAEVAKRVSKWRILSGTGVPFDDAEYARWEERAIDHAGGVLAEPYAHYSLTLPPPSRAAELREVTVPTLVIQAEHDPIAPAPHGKHLAGLIPTARLAEIPGMGHALPSSVHGPLAEVILAHTRSAA”, the “soluble on expression in E. coli” value is “soluble”.

For the origin of these results see the DeepSol protein solubility set.
